Test results reported in the supplement of paper PMC10567573.

B1: PRPH (parent)
chain: DEIEFLKKLHEEELRDLQVSVESQ
B2: FBF1 (parent)
chain: YQRPQDSEDMWGDEDFTFGAYQPT

Variants of: B1
Experiment: protein stability index of a GFP-peptide fusion (GPS, HEK-293T) (PSI 1-6); higher = more stable
Conditions: c terminus: a fixed tail appended
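Further: lentivirally expressed fusions sorted by FACS into six bins by GFP to DsRed ratio, PSI derived from sequencing read proportions per bin multiplied by bin number.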

Protein stability index, by site and new letter:
K8: R 4.61 | G 4.55 | A 5.1 | S 4.15 | H 4.63 | F 3.94 | N 4.84 | D 4.89
E2: D 5.01 | N 4.67 | R 4.39 | A 2.22 | S 3.65 | C 2.04 | I 2.1 | W 1.69 | H 4.08 | T 2.98
H10: Q 5.03 | N 4.16 | P 5.1 | W 3.54 | I 3.37 | D 5.25 | F 3.47 | E 5.23 | G 4.64 | T 4.95 | Y 4.18
D1: S 4.64 | C 3.41 | P 4.53 | M 4.18 | I 3.46 | V 4.31 | F 4.07 | T 4.71 | Q 3.77 | L 4.63 | W 3.97 | G 4.53 | Y 4.32
E13: M 3.46 | P 5.05 | C 3.59 | D 4.97 | N 4.97 | I 2.74 | L 3.27 | G 4.83 | A 3.9
L6: F 4.42 | S 5.12 | M 4.89 | V 4.46 | A 5.48 | R 4.91 | W 4.61 | H 5.21 | T 5.13
V21: S 4.75 | K 5.06 | I 4.13 | D 5.43 | M 4.45 | P 4.95 | N 5.29 | R 4.39 | Y 4.07 | H 5.09
Q24: S 4.26 | G 4.48 | R 4.22 | F 3.91 | K 4.65 | Y 3.64 | W 3.85 | M 4.64 | N 4.92
K7: Y 2.42 | I 2.03 | G 4.52 | N 5.18 | V 2.59 | L 2.37 | D 5.06 | H 4.21 | C 2.85 | Q 4.61
E22: H 4.5 | K 4.69 | C 4.93 | A 4.47 | G 4.3 | Q 4.37 | R 4.3 | V 4.18 | F 3.38
L17: C 4.92 | E 4.98 | T 5.06 | F 4.69 | V 5.02 | G 5.21 | Y 3.39 | A 5.15
D16: P 4.59 | K 4.94 | Q 4.35 | W 3.15 | H 4.67 | F 3.1 | E 4.31 | N 4.2 | Y 3.49 | L 2.97
S23: N 5.04 | H 4.94 | I 3.8 | A 4.04 | P 4.71 | Q 4.11 | Y 4.71 | M 3.96
L9: T 5.3 | A 5.02 | V 5.01 | F 4.65 | N 5.34 | H 5.29 | W 4.38 | R 5.29 | E 5.05 | K 5.49 | I 4.88
E11: N 4.57 | P 4.34 | W 3.21 | M 3.99 | R 4.23 | Q 4.08 | G 4.95 | C 4.09 | I 4.01 | T 4.46
R15: N 4.91 | S 4.8 | I 4.79 | D 5.45 | H 4.39 | Y 4.58 | M 4.58 | A 5.18 | F 4.15 | C 4.53 | K 4.59 | W 3.91
V19: K 5 | T 5.19 | W 5.12 | D 5.58 | L 4.85 | Q 5.01 | E 5 | R 5.06 | F 4.39 | A 5.23
Q18: G 5 | M 4.37 | K 4.63 | N 5.11 | L 3.89 | Y 4.21 | H 4.69 | A 4.46 | T 5.36 | C 4.86
L14: N 5.08 | D 5.57 | M 5.02 | Y 4.6 | V 5.27 | K 4.92 | S 5.18 | R 5.22 | E 4.85 | Q 4.84 | P 4.71 | H 5.31 | W 4.38
I3: N 5.46 | E 5.43 | K 5.18 | G 5.05 | P 4.94 | Y 4.8 | M 4.96 | A 5.36 | V 4.83 | S 5.42 | L 4.84 | F 4.88 | Q 5.08
S20: E 5.75 | T 4.87 | H 4.91 | N 4.83 | R 5.1 | V 4.88 | G 4.29 | I 4.27 | A 4.78 | L 4.2 | D 4.54 | C 5.06 | K 4.75
E4: A 4.36 | N 4.91 | I 4.12 | Y 3.9 | M 4.53 | K 4.18 | V 4.21 | S 4.93 | W 3.18 | T 4.16 | F 3.96 | D 4.93 | G 4.57 | H 4.55 | L 4.15
E12: F 4.07 | R 4.8 | C 4.54 | M 4.33 | Q 4.53 | W 4.12 | N 4.5 | I 4.05 | G 4.19 | D 4.41 | T 4.43
F5: V 4.95 | R 4.79 | K 4.73 | N 4.9 | Y 4.58 | P 5.22 | E 5.47 | A 4.69 | L 5.18 | I 4.92 | C 5.15 | W 4.42

Variants of: B2
Experiment: as above
Conditions: c terminus: a fixed tail appended

Protein stability index of substitutions, site by site:
Y21: I 3.16 | A 3.51 | T 3.1 | K 3.44 | S 3.51 | M 2.78 | V 2.92 | Q 3.39 | D 3.73 | G 3.46 | R 3.06 | E 3.75 | F 2.98 | P 3.56 | W 2.04 | C 3.17 | L 3.35 | N 3.51 | H 3.07
T24: S 2.67 | H 2.27 | E 2.58 | N 3.02 | F 2.29 | L 2.23 | Q 2.68 | V 2.63 | W 1.99 | I 2.24 | G 3.25 | K 3.02 | C 2.83 | D 2.88 | Y 2.44 | A 2.79 | P 3.17 | R 2.38 | M 2.52
A20: T 3.05 | W 2.04 | V 2.72 | Y 2.79
Q22: W 1.94 | P 3.19 | Y 3.22 | T 2.28 | D 3.06 | I 2.45 | N 2.57 | S 3.03 | V 2.37 | H 2.43 | E 3.19 | C 2.6 | F 2.38 | L 2.77 | A 2.77 | R 2.65 | G 2.86 | M 2.22 | K 1.95
P23: A 2.47 | M 2.26 | Y 2.85 | K 2.68 | W 2.19 | E 3.36 | F 2.74 | G 3.19 | R 2.67 | N 3.1 | C 2.96 | L 2.87 | I 2.64 | T 2.87 | V 2.4 | S 2.61 | D 3.06 | Q 3.06 | H 3.32
